Reference: PMC11473482, “Highly efficient synthesis of the chiral ACE inhibitor intermediate (R)-2-hydroxy-4-phenylbutyrate ethyl ester via engineered bi-enzyme coupled systems” (Bioresources and Bioprocessing, 2024)

B1: CpCR (Lodderomyces parapsilosis) (protein)
chain: MTKAVPDKFQGFAVSDPKNWNRPKLASYERKQINPHDVVLKNEVCGLCYSDIHTLSAGWQPLQRDNLVVGHEIIGEVIAVGDEVTEFKVGDRVGIGAASSSCRSCQRCDSDNEQYCKQGAATYNSKDVRSNNYVTQGGYSSHSIADEKFVFAIPEDLPSSYGAPLMCAGITVFSPLIRNLGLDARGKNVGIIGIGGLGHLALQFANAMGANVTAFSRSSSKKEQAMKLGAHDFVATGEDKTWYKNYDDHFDFILNCASGIDGLNLSEYLSTLKVDKKFVSVGLPPSEDKFEVSPFTFLQQGASFGSSLLGSKTEVKEMLNLAAKHNVRPMIEEVPISEENCAKALDRCHAGDVRYRFVFTDFDKAFKA
notes: full-length ORF, 368 residues, about 41 kDa; His-tagged, expressed from pETDuet-1 in E. coli BL21(DE3), Ni-NTA purified

Tests used:
GDH-L-CpCR = test system: T1, GDH-L-CpCR; assay: NADPH depletion at […] nm; assay type: biochemical; conditions: 100 mM phosphate pH 7.0, NADPH co-substrate, fused GDH; substrate of Km not given, OPBE by the assay
T1 construct: fusion: GDH N-terminal, (GGGGS)2 linker, CpCR C-terminal; pETDuet-1, E. coli BL21(DE3); with Glucose 1-dehydrogenase

CpCR-L-GDH = test system: T2, CpCR-L-GDH; assay: NADPH depletion at […] nm; assay type: biochemical; conditions: 100 mM phosphate pH 7.0, NADPH co-substrate, fused GDH; substrate of Km not given, OPBE by the assay
T2 construct: fusion: CpCR N-terminal, (GGGGS)2 linker, GDH C-terminal; about 69 kDa; pETDuet-1, E. coli BL21(DE3); with Glucose 1-dehydrogenase

purified protein = substrate: CCOC(=O)C(=O)CCc1ccccc1; assay: purified protein; assay type: biochemical, Lodderomyces parapsilosis; conditions: 100 mM phosphate pH 7.0, NADPH co-substrate, enzyme from pETDuet-1 strain, substrate of Km not given, OPBE by the assay

| Molecule | Km (GDH-L-CpCR) [mM] | Km (CpCR-L-GDH) [mM] | Km (purified protein) [mM] | kcat (purified protein) [s⁻¹] | kcat/Km (purified protein) [M⁻¹ s⁻¹] |
| --- | --- | --- | --- | --- | --- |
| CCOC(=O)C(=O)CCc1ccccc1 [OPBE] | 16.5 | 18.9 | – | – | – |
| B1 | – | – | 19.32 | 1.77 | 91 |
